The results in this text go back to publication PMC3585047 (The Journal of Biological Chemistry, 2013).

The target of the assay is APOBEC3G, fluorescein-labelled (F-A3G) (human, UniProt Q9HC16 1-384, fluorescein (Fluorescein-EX Protein Labeling kit), sites not stated). In words: fluorescence polarisation. In general terms: Polarisation of emitted light reports the rotation of a fluorescent probe.

As a reminder, the Kd is the equilibrium constant for the complex coming apart. Lower therefore signals a tighter complex.

Chain of APOBEC3G, fluorescein-labelled (F-A3G) (Q9HC16 whole entry): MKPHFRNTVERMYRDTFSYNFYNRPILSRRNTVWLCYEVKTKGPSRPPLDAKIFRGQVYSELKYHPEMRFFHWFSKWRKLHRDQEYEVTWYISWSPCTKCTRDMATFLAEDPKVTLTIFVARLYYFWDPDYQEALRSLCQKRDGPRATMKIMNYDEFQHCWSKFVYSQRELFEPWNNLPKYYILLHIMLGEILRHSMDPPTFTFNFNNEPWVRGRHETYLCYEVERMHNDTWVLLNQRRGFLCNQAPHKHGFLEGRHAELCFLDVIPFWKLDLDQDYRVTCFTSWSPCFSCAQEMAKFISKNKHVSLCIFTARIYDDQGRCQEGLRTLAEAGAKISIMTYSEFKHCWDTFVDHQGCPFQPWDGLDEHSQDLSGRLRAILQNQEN

B1: GST-Vif_(IIIB) (natural protein)
chain: not shown
In the case of B1, the Kd amounted to 78 nM.

B2: GST-Vif_(HXB2) (natural protein)
chain: not shown
Regarding B2, the dissociation constant (Kd) is 90 nM.
